What is called Kd is the constant that tells how readily two partners part at equilibrium. Read a high Kd as lower affinity.

Data set [1] concerns the target unmodified nucleosome (Xenopus laevis histones, Widom 601 DNA) (Xenopus laevis). Kind of data set: SPR; Biacore 8K; 5' biotinylated 185 bp nucleosome (about 200 RU) captured on streptavidin on a CM5 chip; RCC1 as analyte in 2-fold dilutions; HBS-EP+ (10 mM HEPES pH 7.4, 150 mM NaCl, 3 mM EDTA, 0.05% Tween-20); 1:1 steady-state affinity fit, two replicates.
For data set [2], the target named is H2AK119ub nucleosome (dichloroacetone-linked ubiquitin on histone H2A-K119, Xenopus laevis histones) (Xenopus laevis | not stated) (UniProt P06897). Described as above.
The test system of another data set is RCC1. The data set can be described thus: SPR. The settings on record: EMSA: 20 mM HEPES pH 7.6, 50 mM NaCl, 5% sucrose, 1 mM DTT, 2.5 mM MgCl2, 0.1 mg/ml BSA, on ice 1 h, SPR: 10 mM HEPES pH 7.4, 150 mM NaCl, 3 mM EDTA, 0.05% ….

Sequence of RCC1 (P18754 whole entry): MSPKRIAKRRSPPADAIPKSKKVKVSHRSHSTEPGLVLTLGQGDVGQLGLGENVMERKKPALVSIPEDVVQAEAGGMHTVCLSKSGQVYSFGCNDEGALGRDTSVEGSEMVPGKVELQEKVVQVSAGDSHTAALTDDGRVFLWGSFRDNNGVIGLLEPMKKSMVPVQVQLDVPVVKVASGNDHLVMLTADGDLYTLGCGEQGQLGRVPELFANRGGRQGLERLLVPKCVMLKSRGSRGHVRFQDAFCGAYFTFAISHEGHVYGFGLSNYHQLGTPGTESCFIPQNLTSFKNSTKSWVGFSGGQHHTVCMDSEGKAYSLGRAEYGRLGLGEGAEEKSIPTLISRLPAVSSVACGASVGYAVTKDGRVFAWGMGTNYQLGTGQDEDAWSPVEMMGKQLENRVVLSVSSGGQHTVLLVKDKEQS

Turning to “RCC1 (from UniProt P18754 1-421) (natural protein)”, the results for the Kd in data set [1] and in data set [2] were 730 nM and 540 nM, respectively.

Take unmodified nucleosome, 185 bp 601 (SPR): in the data set on RCC1 (unmodified histones), the dissociation constant (Kd) was determined as 730 nM.

As to H2AK119ub nucleosome, 185 bp 601 (SPR), the Kd in the data set with RCC1 (histone H2AK119ub) came out at 540 nM.

In the data set with RCC1 (histone H2BK120ub), H2BK120ub nucleosome, 185 bp 601 (SPR) returned a Kd of more than 10000 nM.
